Assay results taken from patent US20220064329A1 (Novo Nordisk, published 2022).

What was measured:
Assay in all cases: SPR, ratio of KD to KD of WT
[1] = molecular target: T1, FVII(a) variant Y118A (human, UniProt P08709 61-466)
T1 construct: hFVII alanine variant in cell culture supernatant
T1 sequence: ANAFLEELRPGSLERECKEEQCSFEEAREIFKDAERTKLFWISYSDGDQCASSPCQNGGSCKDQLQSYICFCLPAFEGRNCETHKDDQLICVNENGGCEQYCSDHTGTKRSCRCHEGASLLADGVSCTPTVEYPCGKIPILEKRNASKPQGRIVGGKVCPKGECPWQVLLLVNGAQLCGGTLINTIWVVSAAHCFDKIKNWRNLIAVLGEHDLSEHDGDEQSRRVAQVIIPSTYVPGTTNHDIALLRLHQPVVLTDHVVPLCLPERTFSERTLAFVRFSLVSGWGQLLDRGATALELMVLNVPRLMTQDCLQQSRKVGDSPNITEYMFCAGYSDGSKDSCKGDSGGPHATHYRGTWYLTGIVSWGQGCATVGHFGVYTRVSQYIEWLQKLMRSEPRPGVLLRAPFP
Procedure: (§1) The running buffer was prepared by diluting 10-fold the 10×HBS-P buffer (supplied by GE Healthcare) and supplemented with 1 mg/ml BSA and 5 mM CaCl2 to give 10 mM HEPES, 150 mM NaCl, 0.05% v/v Polysorbate 20, pH 7.4, 5 mM CaCl2, 1 mg/ml bovine serum albumin (BSA). […] Regeneration of the chip was achieved using 10 mM HEPES, 150 mM NaCl, 20 mM EDTA, 0.05 v/v Polysorbate 20, pH 7.4. Binding data were analysed according to a 1:1 Kinetic model and steady state analysis using BiaEvaluation 4.1 supplied by the manufacturer (Biacore AB, Uppsala, Sweden). Wherever possible, ka, kd and KD values from 1:1 kinetic fitting model are reported. […] An amino acid residue is considered a hot-spot residue if substitution of that amino acid residue with alanine results in an affinity reduction of ten (10) fold or more relative to the wild type.

[2] = molecular target: T2, FVII(a) variant V252A (human, UniProt P08709 61-466)
T2 construct: hFVII alanine variant in cell culture supernatant
T2 sequence: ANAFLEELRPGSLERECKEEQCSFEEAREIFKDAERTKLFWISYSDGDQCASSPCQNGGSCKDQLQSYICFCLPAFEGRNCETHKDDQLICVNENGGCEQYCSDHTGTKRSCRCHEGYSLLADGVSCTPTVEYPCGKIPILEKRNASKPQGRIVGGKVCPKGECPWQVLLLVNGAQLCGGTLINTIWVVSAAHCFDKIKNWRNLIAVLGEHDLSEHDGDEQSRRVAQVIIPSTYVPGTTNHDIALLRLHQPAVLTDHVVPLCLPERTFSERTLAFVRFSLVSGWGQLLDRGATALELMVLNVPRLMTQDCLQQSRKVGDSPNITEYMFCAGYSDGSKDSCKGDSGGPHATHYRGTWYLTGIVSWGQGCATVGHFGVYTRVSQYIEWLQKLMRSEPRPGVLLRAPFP
Procedure: as §1

[3] = molecular target: T3, FVII(a) variant I186A (human, UniProt P08709 61-466)
T3 construct: hFVII alanine variant in cell culture supernatant
T3 sequence: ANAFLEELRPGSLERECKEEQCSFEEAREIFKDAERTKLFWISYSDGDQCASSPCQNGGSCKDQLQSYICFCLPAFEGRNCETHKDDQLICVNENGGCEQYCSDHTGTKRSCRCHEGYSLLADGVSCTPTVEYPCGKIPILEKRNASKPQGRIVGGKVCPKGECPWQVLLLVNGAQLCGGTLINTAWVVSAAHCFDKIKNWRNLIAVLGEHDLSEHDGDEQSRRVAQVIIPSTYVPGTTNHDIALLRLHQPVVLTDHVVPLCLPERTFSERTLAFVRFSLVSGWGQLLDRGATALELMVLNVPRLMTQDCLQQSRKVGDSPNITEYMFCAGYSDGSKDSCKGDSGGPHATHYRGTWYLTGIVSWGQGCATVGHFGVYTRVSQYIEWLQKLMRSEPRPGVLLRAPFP
Procedure: as §1

[4] = molecular target: T4, FVII(a) variant R113A (human, UniProt P08709 61-466)
T4 construct: hFVII alanine variant in cell culture supernatant
T4 sequence: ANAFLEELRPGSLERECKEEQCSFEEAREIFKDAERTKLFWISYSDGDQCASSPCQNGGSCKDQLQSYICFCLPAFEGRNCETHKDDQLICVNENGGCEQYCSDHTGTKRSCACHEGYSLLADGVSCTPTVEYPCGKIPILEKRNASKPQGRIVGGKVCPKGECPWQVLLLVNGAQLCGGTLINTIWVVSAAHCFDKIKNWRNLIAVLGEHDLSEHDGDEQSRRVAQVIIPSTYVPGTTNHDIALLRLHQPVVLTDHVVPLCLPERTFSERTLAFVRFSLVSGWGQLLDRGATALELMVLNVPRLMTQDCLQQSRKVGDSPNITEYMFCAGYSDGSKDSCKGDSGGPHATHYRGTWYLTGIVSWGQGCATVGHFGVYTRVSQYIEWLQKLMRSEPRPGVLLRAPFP
Procedure: as §1

[5] = molecular target: T5, FVII(a) variant V131A (human, UniProt P08709 61-466)
T5 construct: hFVII alanine variant in cell culture supernatant
T5 sequence: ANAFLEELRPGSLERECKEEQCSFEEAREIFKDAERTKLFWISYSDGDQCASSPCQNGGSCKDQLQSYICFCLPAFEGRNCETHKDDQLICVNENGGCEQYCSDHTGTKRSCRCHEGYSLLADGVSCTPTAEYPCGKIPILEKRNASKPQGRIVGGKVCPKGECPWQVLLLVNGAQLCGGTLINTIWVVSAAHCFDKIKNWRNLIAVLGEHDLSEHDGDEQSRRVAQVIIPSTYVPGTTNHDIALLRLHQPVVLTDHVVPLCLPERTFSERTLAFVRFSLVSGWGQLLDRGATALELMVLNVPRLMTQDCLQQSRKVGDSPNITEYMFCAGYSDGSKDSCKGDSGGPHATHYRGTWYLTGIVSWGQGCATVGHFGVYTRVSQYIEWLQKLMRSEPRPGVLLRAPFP
Procedure: as §1

B1: mAb0842(OA) (antibody, human IgG4 S228P, kappa)
heavy: QVQLQESGPGLVKPSQTLSLTCTVSGYSISSDSAWSWIRQPPGKGLEWIGYIQYSGSTNYNPSLKSRVTISRDTSKNQFSLKLSSVTAADTAVYYCARSVNYYGNSFAVGYWGQGTLVTVSSASTKGPSVFPLAPCSRSTSESTAALGCLVKDYFPEPVTVSWNSGALTSGVHTFPAVLQSSGLYSLSSVVTVPSSSLGTKTYTCNVDHKPSNTKVDKRVESKYGPPCPPCPAPEFLGGPSVFLFPPKPKDTLMISRTPEVTCVVVDVSQEDPEVQFNWYVDGVEVHNAKTKPREEQFNSTYRVVSVLTVLHQDWLNGKEYKCKVSNKGLPSSIEKTISKAKGQPREPQVYTLPPSQEEMTKNQVSLSCAVKGFYPSDIAVEWESNGQPENNYKTTPPVLDSDGSFFLVSRLTVDKSRWQEGNVFSCSVMHEALHNHYTQKSLSLSLGK
light: EIVLTQSPATLSLSPGERATLSCRASQGISDYLHWYQQKPGEAPRLLIKYTSQPATGIPARFSGSGSGTDFTLTISSLEPEDFAVYYCQNGHSFPLTFGQGTKLEIKRTVAAPSVFIFPPSDEQLKSGTASVVCLLNNFYPREAKVQWKVDNALQSGNSQESVTEQDSKDSTYSLSSTLTLSKADYEKHKVYACEVTHQGLSSPVTKSFNRGEC
chain: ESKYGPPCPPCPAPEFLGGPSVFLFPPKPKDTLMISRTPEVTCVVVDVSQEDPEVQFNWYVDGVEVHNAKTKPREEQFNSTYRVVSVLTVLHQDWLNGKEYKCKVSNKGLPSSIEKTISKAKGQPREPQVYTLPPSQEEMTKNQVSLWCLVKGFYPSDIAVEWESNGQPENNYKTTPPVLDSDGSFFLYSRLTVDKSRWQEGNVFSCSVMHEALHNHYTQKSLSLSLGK
notes: also called monovalent humanized 11F2 antibody; one-armed anti-FVII(a) antibody
[1]
  Fold diff (Variant/WT): 4.9 fold
[2]
  Fold diff (Variant/WT): 0.9 fold
[3]
  Fold diff (Variant/WT): 1.3 fold
[4]
  Fold diff (Variant/WT): 1 fold
[5]
  Fold diff (Variant/WT): 17.1 fold
